B1: Succinate dehydrogenase assembly factor 2, mitochondrial (Homo sapiens), Q9NX18 (parent)
chain: MAVSTVFSTSSLMLALSRHSLLSPLLSVTSFRRFYRGDSPTDSQKDMIEIPLPPWQERTDESIETKRARLLYESRKRGMLENCILLSLFAKEHLQHMTEKQLNLYDRLINEPSNDWDIYYWATEAKPAPEIFENEVMALLRDFAKNKNKEQRLRAPDLEYLFEKPR

Variants of: B1
Details: with sdha_human SDHA

effect of a mutation on the interaction | Variant
disrupting interaction strength | G78R

Source: IntAct's records for PubMed 19628817
